These results are taken from US6294384, “Compositions and methods based upon an isoform of p53” (The Brigham and Women's Hospital Inc., dated 2001).

This series concerns the molecule itself. The series can be described thus: yeast two-hybrid system and immunoprecipitation.

B1: p35 isoform of p53 derived from rat cardiac myocytes (other)
chain: MEDSQSDMSIELPLSQETFSCLWKLLPPDDILPTTATGSPNSMEDLFLPQDVAELLEGPEEALQVSAPAAQEPGTEAPAPVAPASATPWPLSSSVPSQKTYQGNYGFHLGFLQSGTAKSVMCTYSISLNKLFCQLAKTCPVQLWVTSTPPPGTRVRAMAIYKKSQHMTEVVRRCPHHERCSDGDGLAPPQHLIRVEGNPYAEYLDDRQTFRHSVVVPYEPPEVGSDYTTIHYKYMCNSSCMGGMNRRPILTIITLEDSRSVGVSASACSES
In the case of B1, the binding result is recorded as “no binding”.
